Test results as given in patent publication US20200181597A1, “Composition and Application of Arginine-depleting Agents for Cancer, Obesity, Metabolic Disorders, and Related Complications and Comorbidities” (THE HONG KONG POLYTECHNIC UNIVERSITY, priority 2018, published 2020).

Tests used:
MCF-7 cancer cells = test: cells; format: cell-based, human; details: MCF-7, single agent
Method: (§1) Breast cancer cell lines (e.g. human MCF-7 and MDA-MB-231 cells) were used in these studies. Cancer cells (5×10^3 cells) were seeded in 96-well plates (TPP) with […] complete medium. The plates were incubated in incubator overnight and the cells were allowed to adhere to the plates. […] Each dosage was triplicated in 3 wells to obtain the average change of cell viability. […] The plates were put back into the incubator and further incubated for 4 h. To dissolve the insoluble compound, formazan, formed by MTT, 100 μl of 10% SDS in 0.01 M HCl was added. The plates were incubated at 37° C. overnight. The color change was measured by spectrophotometer at 570 nm. Control set up (without any drug) was used as base to calculate percentage of cell viability which was used to plot the dose response curve by the software Prism 6.0 (GraphPad) to find the IC50 values. […] CalcuSyn software (Biosoft) was used for calculating the CI values.

[1] = system: MDA-MB-231 breast cancer cells; test: cells; format: cell-based, human; details: MDA-MB-231, single agent
Method: as §1

MDA-MB-231 cells = test: Trans-well migration and invasion assay; format: cell-based, human; details: 1 U/mL, 24 h
Method: (§2) Breast cancer cell lines (human MDA-MB-231 cells and mouse 4T1 cells) were used in these studies. Both migration assay and invasion assay were performed in 24 wells Costar (Corning) Trans-well system (polycarbonate membrane inserts, pore size 8.0 μm). Before the assay, the cells were cultivated in appropriate serum free medium for at least 24 h. One day before seeding cells to the upper chambers, 100 μL diluted matrigel was added to the upper chambers of the inserts for invasion assay. Serum free medium (100 μL) was added to the upper chamber used for migration assay. The 24 well plates were incubated in the incubator for overnight. The next day, cells were trypsinized and counted. In the studies, 3×10^4 cells of 4T1 or 5×10^4 cells of MDA-MB-231, with 200 μL appropriate serum free medium, were seeded into the upper chambers. Appropriate complete medium (750 μL) was added to the lower chambers. For the drug treatment group, 1 U/mL His-rhArg (SEQ ID NO: 101) was added to both chambers. The 24 well plates were incubated at 37° C. humidified atmosphere with 5% CO2 for 20 h (4T1 cells) or 24 h (MDA-MB-231 cells).
(§3) After incubation, the medium in the upper chambers was removed. The trans-well inserts were washed with 1×PBS twice. Cold 100% methanol was added to both upper chambers and lower chambers for 10 min to fix the cells. The inserts were washed with 1×PBS for two times. […]

4T1 cells = test: Trans-well migration and invasion assay; format: cell-based, mouse; details: 1 U/mL, 20 h
Method: as §2, §3

B1: His-rhArg: recombinant human arginase with His tag, SEQ ID NO: 101 (protein)
chain: MHHHHHHMSAKSRTIGIIGAPFSKGQPRGGVEEGPTVLRKAGLLEKLKEQECDVKDYGDLPFADIPNDSPFQIVKNPRSVGKASEQLAGKVAEVKKNGRISLVLGGDHSLAIGSISGHARVHPDLGVIWVDAHTDINTPLTTTSGNLHGQPVSFLLKELKGKIPDVPGFSWVTPCISAKDIVYIGLRDVDPGEHYILKTLGIKYFSMTEVDRLGIGKVMEETLSYLLGRKKRPIHLSFDVDGLDPSFTPATGTPVVGGLTYREGLYITEEIYKTGLLSGLDIMEVNPSLGKTPEEVTRTVNTAVAITLACFGLAREGNHKPIDYLNPPK
modifications: His tag; His-rhArg, Synthesized in Lab
IC50 (MCF-7 cancer cells): 0.7869 U/mL | IC50 [1]: 0.9522 U/mL | number of cancer cells that can migrate and invade via the transwell inserts (MDA-MB-231 cells): decreased | number of cancer cells that can migrate and invade via the transwell inserts (4T1 cells): decreased
